The text below walks through data of US20260263521A1 (AIMED BIO, published 2026).

Positions count from the first letter of the chain named. A value given as a limit tells only on which side of the number the result lay.

The target of experiment [1] is T1, recombinant human CD200R1 Fc chimera protein, CF (R&D systems, 3414-CD) (human, UniProt Q8TD46 27-266).
T1 construct: Bought; also called CD200R1-Fc protein; human CD200R1 Fc protein; Fc part of the bought chimera not given
T1 sequence (looked up): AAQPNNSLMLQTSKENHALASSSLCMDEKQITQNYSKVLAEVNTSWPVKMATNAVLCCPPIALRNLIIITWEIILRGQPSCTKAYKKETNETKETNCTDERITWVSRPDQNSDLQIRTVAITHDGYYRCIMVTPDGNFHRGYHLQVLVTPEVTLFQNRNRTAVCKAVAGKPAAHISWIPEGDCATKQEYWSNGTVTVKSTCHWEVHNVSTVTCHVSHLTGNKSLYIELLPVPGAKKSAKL
The experiment in a line: competition ELISA: antibody on coated human CD200R1-Fc, competitor rhCD200-Fc at 1 µg/mL, bound CD200 detected. How it is done: 96-well plates were coated with human CD200R1 (R&D systems, 3414-CD) recombinant protein at a concentration of 2 μg/mL at 4° C. for 16 hours, and blocked with 3% skim milk for 1 hour. […] The result was washed with PBST and distilled water, and the samples were bound with Pierce™ High Sensitivity Streptavidin-HRP (Thermo Scientific, 21130) at room temperature for 1 hour, and then washed again with PBST and distilled water. TMB substrate solution (Thermo Scientific, 34029, 1-Step™ Ultra TMB-ELISA substrate solution) was added to develop the color. The reaction was stopped with stop solution (Invitrogen, SS04, ELISA Stop Solution).
(In general: In an ELISA, binding on a coated surface is turned into a signal by an enzyme label.)

Experiment [2] deals with T2, human CD200RLa (Sino Biological, 11620-H08H) recombinant protein (human, UniProt Q6Q8B3 24-239).
T2 construct: Bought; construct not described
T2 sequence (looked up): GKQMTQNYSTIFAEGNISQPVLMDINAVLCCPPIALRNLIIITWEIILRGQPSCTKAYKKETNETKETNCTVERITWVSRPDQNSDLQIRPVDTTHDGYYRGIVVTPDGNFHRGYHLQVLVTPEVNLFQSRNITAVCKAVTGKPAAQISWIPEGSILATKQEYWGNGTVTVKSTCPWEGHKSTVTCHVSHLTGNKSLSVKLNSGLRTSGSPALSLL
In words: ELISA, plate-bound human CD200RLa (2 ug/mL), antibody 0.0192-300 nM, O.D 450 nm; panel 'recombinant human CD200RLa'. An outline of the steps: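 Plates coated overnight (16 h, 4° C) with human or cynomolgus CD200RLa recombinant protein, blocked with 3% skim milk; bound antibody detected by TMB colour development, reaction stopped before reading.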

Experiment [3] addresses T3, mouse CD200R1 protein (R&D systems, 2554-CD) (mouse, UniProt Q9ES57 26-238, limits assumed).
T3 construct: Bought; construct not described
T3 sequence (looked up): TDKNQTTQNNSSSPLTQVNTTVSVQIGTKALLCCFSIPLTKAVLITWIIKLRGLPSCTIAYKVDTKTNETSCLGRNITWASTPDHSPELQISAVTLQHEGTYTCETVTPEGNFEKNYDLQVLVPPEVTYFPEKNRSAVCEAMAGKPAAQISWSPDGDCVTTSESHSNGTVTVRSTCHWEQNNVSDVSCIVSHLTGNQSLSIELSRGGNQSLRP
In words: ELISA, plate-bound mouse CD200R1 (2 ug/mL), IgG 0.0192-300 nM, OD 450 nm; panel 'mouse CD200R1'. An outline of the steps: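 Wells coated with antigen at 2 μg/mL (4 °C, 16 h) and blocked with 3% skim milk before IgG addition. Bound antibody developed with TMB, reaction stopped, absorbance read at 450 nm.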

Experiment [4] concerns the target T4, human CD200R1 expressed on cells (Jurkat-CD200R1, U937-CD200R1, HH cells) (human, UniProt Q8TD46 25-348).
T4 construct: whole, on cells; also called HH (CRL-2105); cell surface-expressed CD200R1
T4 sequence (looked up): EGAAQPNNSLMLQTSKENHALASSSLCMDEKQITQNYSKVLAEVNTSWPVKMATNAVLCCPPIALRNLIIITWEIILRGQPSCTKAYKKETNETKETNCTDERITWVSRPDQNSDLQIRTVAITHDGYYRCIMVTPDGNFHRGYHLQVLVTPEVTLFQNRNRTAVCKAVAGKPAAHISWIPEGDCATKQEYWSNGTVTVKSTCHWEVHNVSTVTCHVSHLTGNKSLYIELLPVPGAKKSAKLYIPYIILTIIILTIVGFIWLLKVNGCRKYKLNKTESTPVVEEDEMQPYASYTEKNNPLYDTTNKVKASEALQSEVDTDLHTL
The experiment in a line: flow cytometry on Jurkat-CD200R1 and HH cells, 500 nM antibody in IgG1 form. How it is done: The cells were washed by centrifugation at 130 g for 5 minutes. The cells were seeded onto 96-well round-bottom plates (SPL, #34296) at a density of 1×10⁵ cells/well in Flow cytometry staining buffer (Invitrogen, #00-4222-26) or FACS buffer. […] After incubation for 1 hour at 4° C., the cells were treated with Alexa-647 Goat anti-human IgG (H+L) cross-adsorbed secondary antibody (Invitrogen, #A21445) and incubated at 4° C. for an additional 30 minutes. After washing twice with FACS buffer, flow cytometry analysis was performed using a Novocyte Flow cytometer (Agilent).
On the technique in general: A flow cytometer gives signals particle by particle.

Experiment [5] deals with T1, recombinant human CD200R1 Fc chimera …. The experiment in a line: ELISA, plate-bound human CD200R1-Fc (2 ug/mL), IgG 0.0192-300 nM, anti-human IgG F(ab')2-HRP, OD 450 nm; panel 'human CD200R1'. The method, then: 96-well plates were coated with human CD200R1 (R&D systems, 3414-CD) and mouse CD200R1 protein (R&D systems, 2554-CD) at a concentration of 2 μg/mL at 4° C. for 16 hours and then were blocked with 3% skim milk.
Color was developed with a TMB substrate solution (Thermo Scientific, 34029, 1-Step™ TMB-ELISA Ultra Substrate Solution). The color reaction was stopped with stop solution (Invitrogen, SS04, ELISA Stop Solution). The absorbance was measured at an optical density of 450 nm.

The target of experiment [6] is T5, Hybrid CD200R1 MH (mouse;human, UniProt Q9ES57;Q8TD46).
T5 construct: single domain; mouse D1 over human D2; also called MH hybrid domain; P001 MH domain
T5 sequence (hybrid extracellular part, looked up): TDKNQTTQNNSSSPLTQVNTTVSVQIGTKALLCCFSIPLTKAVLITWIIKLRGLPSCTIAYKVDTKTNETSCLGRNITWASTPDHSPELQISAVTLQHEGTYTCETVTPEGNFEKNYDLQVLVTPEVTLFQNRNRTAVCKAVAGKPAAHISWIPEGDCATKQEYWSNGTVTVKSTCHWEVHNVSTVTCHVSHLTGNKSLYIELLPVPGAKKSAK
In words: ELISA, plate-bound MH hybrid (1 ug/mL), antibody 0.0192-300 nM, O.D 450 nm; panel 'P001 MH domain-3)'. The method, then:
Recombinant proteins were produced from the extracellular Ig-like V-type domain and Ig-like C2-type domain of human CD200R1, each designed as human-mouse (HM hybrid domain) and mouse-human (MH hybrid domain) recombinant proteins. A 96-well plate was coated at a concentration of 1 μg/mL with each protein at 4° C. for 16 hours and blocked with 3% skim milk. […] After color development with TMB substrate solution (Thermo Scientific, 34029, 1-Step™ Ultra TMB-ELISA Substrate Solution), the color reaction was stopped with a stop solution (Invitrogen, SS04, ELISA Stop Solution), and the absorbance was measured at an O.D. of 450 nm.

B1: P001002 (IgG) (antibody, V domains shown)
VH: EVQLLESGGGLVQPGGSLRLSCAASGFTFSSYAMSWVRQAPGKGLEWVSWISYDSSSKYYADSVKGRFTISRDNSKNTLYLQMNSLRAEDTAVYYCARGVVQPYLWTEFDYWGQGTLVTVSS
VL: QSVLTQPPSASGTPGQRVTISCSGSSSNIGSNYVNWYQQLPGTAPKLLIYSDSHRPSGVPDRFSGSKSGTSASLAISGLRSEDEADYYCGSWDDSLSGYVFGGGTKLTVL
For the molecule B1, the IC50 (commonly the concentration needed to halve the response being measured) in experiment [1] was 11.5 nM. Besides, the binding result in experiment [2] and in experiment [3] was “no binding (tested: 300 nM)” in each case. In addition, the “MFI normalized to P001017 (chimeric OX108), %” value in experiment [4] is > 50%. The EC50 (read off the curve) (as a rule, the midpoint of the concentration-response curve) in experiment [5] was ~0.8 nM.

B2: P001012 (IgG) (antibody, V domains shown)
VH: EVQLLESGGGLVQPGGSLRLSCAASGFTFSGYDMSWVRQAPGKGLEWVSGISSSGGNKYYADSVKGRFTISRDNSKNTLYLQMNSLRAEDTAVYYCARAIRPCISAPCYYDDAMDVWGQGTLVTVSS
VL: B1 VL with S23T, N35S, Q38R, H54Q, D94Y, G98A
As for B2, the binding result in experiment [2], in experiment [3] and in experiment [6] was “no binding (tested: 300 nM)” throughout.
